{
  "source": "paper PMC5496667",
  "binders": {"B1": {"name": "DsRed-tagged Ccdc181 (FACS-FRET construct) (natural protein)", "chain": "MDEDKDIDSKESGEYEDDFEKDLEWLINDKEKSNGSTIEMACKKEDDLDQVLKENETETELGQQLSDPDNSPKDEALPRRNDFISVPSIQPLDPISDSDSENSFQDSKPENQKDLEDEEDEEVRRYIMEKIIEANKLLQTQEPVNDKRERKLKFKDKLVDLEVPPLEDSDTCKALLENETNMSGKLSQLCISGDLEQESVLVSVTDGSCEENDRKILVERDGKFELMNLQDIESQGFLPPISSANSVEHESSQLPLRAPNPSVGGIKKEESEAKGHVLPISPAGEPLAQVPQLLPNPKNRPSSAANPDVTKKARRSNHRIQSAGVSPVTSTYCLSPRQKELQKQLERKREKLKREEEQRKLEEENEKKKENEMVFKAWLQKKREQVIEMRRVQRAKQIEDMSSRQVNRDPQQAFRLWLKKKHEEQMKERKTEELRKQEECLFFLRGTEGRERAFRQWLRRKQIEKIAEQQAVKERARQLRLEARRSKQLQSSLYSIPEAKAFRFTDHYN"}},
  "molecular_target": "GFP-tagged Tubulin (fusion construct of Tubulin and GFP)",
  "assay": "FRET or BRET",
  "data": [
    {"binder": "B1", "values": [
      {"measurement": "percent FRET positive cells", "value": 29.4, "unit": "%"}
    ]}
  ]
}
